From patent US20250263504A1 (Takeda / Millennium, published 2025)

T1: Factor XIIa (FXIIa) (UniProt P00748 20-372; P00748 373-615, limits assumed)
T1 construct: the description speaks of human FXIIa; also called active Factor XII
T1 sequence (looked up) 1: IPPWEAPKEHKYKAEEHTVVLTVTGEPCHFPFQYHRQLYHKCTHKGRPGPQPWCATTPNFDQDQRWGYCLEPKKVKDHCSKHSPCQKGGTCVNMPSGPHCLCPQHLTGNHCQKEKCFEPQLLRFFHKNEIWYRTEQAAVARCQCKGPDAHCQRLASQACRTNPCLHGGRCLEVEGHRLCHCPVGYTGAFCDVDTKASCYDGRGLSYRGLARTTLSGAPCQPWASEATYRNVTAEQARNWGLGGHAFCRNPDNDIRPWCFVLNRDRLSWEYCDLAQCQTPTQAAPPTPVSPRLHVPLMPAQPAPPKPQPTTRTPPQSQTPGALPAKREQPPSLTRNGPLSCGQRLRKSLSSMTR
T1 sequence (looked up) 2: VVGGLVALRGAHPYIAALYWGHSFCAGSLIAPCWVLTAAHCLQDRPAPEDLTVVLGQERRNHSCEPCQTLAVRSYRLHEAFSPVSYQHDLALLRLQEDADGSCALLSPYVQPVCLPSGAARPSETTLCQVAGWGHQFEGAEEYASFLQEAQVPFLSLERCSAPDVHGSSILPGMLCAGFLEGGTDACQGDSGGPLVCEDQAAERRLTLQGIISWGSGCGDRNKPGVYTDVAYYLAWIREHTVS

B1: 620I-X0179-C01 (bispecific antibody, human IgG1, kappa)
heavy: not shown
light: DIQMTQSPSTLSASVGDRVTITCRASQSISSWLAWYQQKPGKAPKLLIYKASTLESGVPSRFSGSGSGTEFTLTISSLQPDDFATYYCQQYNTYWTFGQGTKVEIKRTVAAPSVFIFPPSDEQLKSGTASVVCLLNNFYPREAKVQWKVDNALQSGNSQESVTEQDSKDSTYSLSSTLTLSKADYEKHKVYACEVTHQGLSSPVTKSFNRGEC
notes: 620I-X0177-A01 with IgG C-terminal Lys changed to Gly; also called 620I-R0052-C01; 620I-X179-C01
B2: 620I-X0179-E05 (bispecific antibody, human IgG1, kappa)
heavy: not shown
light: B1 light
notes: 620I-X0177-C01 with IgG C-terminal Lys deleted; also called 620I-R0052-E01
B3: 620I-X0180-G03 (bispecific antibody, human IgG1, kappa)
heavy: not shown
light: B1 light
notes: 620I-X0177-E01 with IgG C-terminal Lys changed to Gly; also called 620I-R0052-G03; 620I-X180-G03
B4: 620I-X0180-A05 (bispecific antibody, human IgG1, kappa)
heavy: not shown
light: B1 light
notes: 620I-X0177-G01 with IgG C-terminal Lys deleted; also called 620I-R0052-A03; 620I-X180-A05
B5: 620I-X0180-E07 (bispecific antibody, human IgG1, kappa)
heavy: not shown
light: B1 light
notes: 620I-X0177-E01 with IgG C-terminal Lys deleted; also called 620I-R0052-E03; 620I-X180-E07
B6: 620I-X0180-C11 (bispecific antibody, human IgG1, kappa)
heavy: not shown
light: B1 light
notes: 620I-X0177-G01 with IgG C-terminal Lys changed to Gly; also called 620I-R0052-C03; 620I-X180-C11
B7: 620I-X0179-A09 (bispecific antibody, human IgG1, kappa)
heavy: not shown
light: B1 light
notes: 620I-X0177-A01 with IgG C-terminal Lys deleted; also called 620I-R0052-A01; 620I-X179-A09
B8: 620I-X0179-G05 (bispecific antibody, human IgG1, kappa)
heavy: not shown
light: B1 light
notes: 620I-X0177-C01 with IgG C-terminal Lys changed to Gly; also called 620I-R0052-G01; 620I-X179-G05
B9: 620I-X0138-B01 (bispecific antibody, human IgG1, kappa)
heavy: not shown
light: B1 light
notes: also called 620I-X138-B01
B10: 620I-X0142-B11 (bispecific antibody, human IgG1, kappa)
heavy: not shown
light: B1 light
notes: also called 620I-X142-B11
B11: 620I-X0142-B07 (bispecific antibody)
heavy: not shown
light: B1 light
notes: also called 620I-X142-B07
B12: 620I-X0138-E05 (bispecific antibody)
heavy: not shown
light: B1 light
notes: also called 620I-X138-E05
B13: 620I-X0138-D11 (bispecific antibody)
heavy: not shown
light: B1 light
notes: also called 620I-X138-D11
B14: 620I-X0142-A02 (bispecific antibody)
heavy: not shown
light: B1 light
notes: also called 620I-X142-A02
B15: 620I-X0138-E03 (bispecific antibody)
heavy: not shown
light: B1 light
notes: also called 620I-X138-E03
B16: 620I-X0138-G12 (bispecific antibody)
heavy: not shown
light: B1 light
notes: also called 620I-X138-G12
B17: 620I-X0142-D04 (bispecific antibody)
heavy: not shown
light: B1 light
notes: also called 620I-X142-D04
B18: 620I-X0142-A05 (bispecific antibody)
heavy: not shown
light: B1 light
notes: also called 620I-X142-A05
B19: 620I-X0139-D12 (bispecific antibody)
heavy: not shown
light: B1 light
notes: also called 620I-X139-D12
B20: 620I-X0142-B02 (bispecific antibody)
heavy: not shown
light: B1 light
notes: also called 620I-X142-B02
B21: 620I-X0138-D05 (bispecific antibody)
heavy: not shown
light: B1 light
notes: also called 620I-X138-D05
B22: 620I-X0139-A01 (bispecific antibody)
heavy: not shown
light: B1 light
notes: also called 620I-X139-A01
B23: 620I-X0139-E05 (bispecific antibody)
heavy: not shown
light: B1 light
notes: also called 620I-X139-E05
B24: 620I-X0139-G12 (bispecific antibody)
heavy: not shown
light: B1 light
notes: also called 620I-X139-G12
B25: 620I-X0142-A04 (bispecific antibody)
heavy: not shown
light: B1 light
notes: also called 620I-X142-A04
B26: 620I-X0139-A11 (bispecific antibody)
heavy: not shown
light: B1 light
notes: also called 620I-X139-A11
B27: 620I-X0139-A12 (bispecific antibody)
heavy: not shown
light: B1 light
notes: also called 620I-X139-A12
B28: 620I-X0138-D06 (bispecific antibody)
heavy: not shown
light: B1 light
notes: also called 620I-X138-D06
B29: 620I-X0142-E02 (bispecific antibody)
heavy: not shown
light: B1 light
notes: also called 620I-X142-E02
B30: 620I-X0139-B10 (bispecific antibody)
heavy: not shown
light: B1 light
notes: also called 620I-X139-B10
B31: 620I-X0138-F02 (bispecific antibody)
heavy: not shown
light: B1 light
notes: also called 620I-X138-F02
B32: 620I-X0138-F05 (bispecific antibody)
heavy: not shown
light: B1 light
notes: also called 620I-X138-F05
B33: X0122-C01 (bispecific antibody)
heavy: not shown
light: B1 light
notes: also called X122-C01
B34: X0122-A01 (bispecific antibody)
heavy: not shown
light: B1 light
notes: also called X122-A01
B35: X0121-E01 (bispecific antibody)
heavy: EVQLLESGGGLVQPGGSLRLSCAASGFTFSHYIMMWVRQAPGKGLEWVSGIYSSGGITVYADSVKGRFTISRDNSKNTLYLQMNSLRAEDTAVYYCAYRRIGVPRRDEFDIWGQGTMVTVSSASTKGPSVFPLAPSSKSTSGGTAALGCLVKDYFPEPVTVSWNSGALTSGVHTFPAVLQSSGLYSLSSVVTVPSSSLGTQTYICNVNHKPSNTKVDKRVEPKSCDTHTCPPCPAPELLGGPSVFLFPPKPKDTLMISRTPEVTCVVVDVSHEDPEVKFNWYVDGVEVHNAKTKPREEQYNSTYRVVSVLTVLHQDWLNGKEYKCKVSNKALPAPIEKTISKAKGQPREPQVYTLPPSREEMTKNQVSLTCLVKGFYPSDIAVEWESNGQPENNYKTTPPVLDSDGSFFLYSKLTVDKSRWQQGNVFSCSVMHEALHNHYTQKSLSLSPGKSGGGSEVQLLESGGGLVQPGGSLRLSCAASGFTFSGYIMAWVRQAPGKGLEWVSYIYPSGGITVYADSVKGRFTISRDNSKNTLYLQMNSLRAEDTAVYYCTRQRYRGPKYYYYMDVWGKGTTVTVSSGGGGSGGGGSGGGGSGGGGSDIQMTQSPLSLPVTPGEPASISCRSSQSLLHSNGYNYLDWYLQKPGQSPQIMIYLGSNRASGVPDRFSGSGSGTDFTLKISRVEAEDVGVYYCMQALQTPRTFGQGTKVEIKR
light: B1 light
notes: also called X121-E01
B36: X0120-A01 (bispecific antibody)
heavy: not shown
light: B1 light
notes: also called X120-A01

molecular target: T2, plasma kallikrein (pKal) (UniProt P03952 20-390; P03952 391-638, limits assumed); test: pKal enzyme inhibition, Ki,app
T2 construct: the description speaks of human pKal; also called active pKal
T2 sequence (P03952 20-390 limits assumed, form in doubt, chain 1 of 2): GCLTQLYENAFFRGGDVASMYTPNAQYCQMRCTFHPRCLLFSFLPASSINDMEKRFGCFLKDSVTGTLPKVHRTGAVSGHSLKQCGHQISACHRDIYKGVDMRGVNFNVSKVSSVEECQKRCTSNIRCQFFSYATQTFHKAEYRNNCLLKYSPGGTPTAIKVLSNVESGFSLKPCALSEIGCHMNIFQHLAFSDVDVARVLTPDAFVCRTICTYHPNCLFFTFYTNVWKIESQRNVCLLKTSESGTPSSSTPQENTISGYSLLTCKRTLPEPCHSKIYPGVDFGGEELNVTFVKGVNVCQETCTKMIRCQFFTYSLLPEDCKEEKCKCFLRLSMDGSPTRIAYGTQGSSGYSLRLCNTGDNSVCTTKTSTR
T2 sequence (P03952 391-638 limits assumed, form in doubt, chain 2 of 2): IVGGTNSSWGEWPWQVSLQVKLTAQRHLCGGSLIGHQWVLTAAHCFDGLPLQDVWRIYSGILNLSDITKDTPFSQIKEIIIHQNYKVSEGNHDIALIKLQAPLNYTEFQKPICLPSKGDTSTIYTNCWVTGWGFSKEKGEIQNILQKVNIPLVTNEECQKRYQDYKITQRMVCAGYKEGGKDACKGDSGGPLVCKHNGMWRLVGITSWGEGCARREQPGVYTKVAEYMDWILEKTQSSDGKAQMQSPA

Row | Binder | Ki [nM]
1 | B1 | 0.243
2 | B2 | 0.203
3 | B3 | 0.208
4 | B4 | 0.254
5 | B5 | 0.243
6 | B6 | 0.232
7 | B7 | 0.225
8 | B8 | 0.226

molecular target: T1, Factor XIIa (FXIIa); test: FXIIa enzyme inhibition, Ki,app

Row | Binder | Ki [nM]
9 | B1 | 0.108
10 | B2 | 0.099
11 | B3 | 0.071
12 | B4 | 0.116
13 | B5 | 0.092
14 | B6 | 0.14
15 | B7 | 0.09
16 | B8 | 0.052

molecular target: T2, plasma kallikrein (pKal); test: enzyme inhibition, corrected Ki,app

Row | Binder | Ki [nM]
17 | B9 | 0.169
18 | B10 | 0.622
19 | B11 | 0.224
20 | B12 | 0.186
21 | B13 | 0.178
22 | B14 | 0.152
23 | B15 | 0.178
24 | B16 | 0.186
25 | B17 | 0.17
26 | B18 | 0.16
27 | B19 | 0.428
28 | B20 | 0.156
29 | B21 | 0.519
30 | B22 | 0.146
31 | B23 | 0.196
32 | B24 | 0.276
33 | B25 | 0.162
34 | B26 | 0.235
35 | B27 | 2.05
36 | B28 | 0.199
37 | B29 | 0.162
38 | B30 | 0.247
39 | B31 | 0.464
40 | B32 | 0.214

molecular target: T1, Factor XIIa (FXIIa); test: enzyme inhibition, corrected Ki,app

Row | Binder | Ki [nM]
41 | B9 | 6.63
42 | B10 | 7.72
43 | B11 | 0.775
44 | B12 | 0.245
45 | B13 | 0.443
46 | B14 | 0.063
47 | B15 | 0.122
48 | B16 | 0.766
49 | B17 | 0.414
50 | B18 | 2.14
51 | B19 | 0.383
52 | B20 | 0.955
53 | B21 | 0.139
54 | B22 | 0.053
55 | B23 | 0.172
56 | B24 | 0.252
57 | B25 | 1.23
58 | B26 | 3.83
59 | B27 | 4.08
60 | B28 | 0.132
61 | B29 | 0.186
62 | B30 | 0.189
63 | B31 | 0.794
64 | B32 | 0.147

molecular target: T2, plasma kallikrein (pKal); test: enzyme inhibition, peptide substrate, tight-binding fit, Ki,app
Procedure: (§1) Varying concentrations of the bispecific antibodies were incubated with individual FXIIa and pKal samples, and the ability of these proteases to cleave a peptide substrate was monitored over time by measuring changes in the fluorescence of a chemical moiety covalently attached to the peptide substrate. Slopes of this kinetic data are equivalent to enzymatic proteolytic rates, which are then plotted against the concentration of the inhibitor. The resulting plots are then fit to a tight binding inhibitor equation (Equation 1) by nonlinear regression to obtain apparent inhibition constants (Kᵢ^app).

Row | Binder | Ki [nM]
65 | B33 | 0.161
66 | B34 | 0.169
67 | B35 | 0.159
68 | B36 | 0.138

molecular target: T1, Factor XIIa (FXIIa); test: as above
Procedure: as §1

Row | Binder | Ki [nM]
69 | B33 | 5.69
70 | B34 | 6.05
71 | B35 | 0.611
72 | B36 | 0.0515
